A short description of the data set: self-splicing fitness, log relative to wild type (ln ratio); higher = more splicing; Tetrahymena group I intron in knt gene, E. coli kanamycin selection, DiMSum; sequences stand for … in CUCUCU…GGAGGGAAAAGUUAUCAGGCAUGCACCUGGUAGCUAGUCUUUAAACCAAUAGAUUGCAUCGGUUUAAAAGGCAAGACCGUCAAAUUGCGGGAAAGGGGUCAACAGCCGUUCAGUACCAAGUCUCAGGGGAAACUUUGAGAUGGCCUUGCAAAGGGUAUGGUAAUAAGCUGACGGACAUGGUCCUAACCACGCAGCCAAGUCCUAAGUCAACAGAUCUUCUGUUGAUAUGGAUGCAGUUCACAGACUAAAUGUCGGUCGGGGAAGAUGUAUUCUUCUCAUAAGAUAUAGUCGGACCUCUCCUUAAUGGGAGCUAGCGGAUGAAGUGAUGCAACACUGGAGCCGCUGGGAACUAAUUUGUAUGCGAAAGUAUAUUGAUUAGUUUUGGAGUACUCGUGGUCG
The procedure, abridged:
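The eight P1ex-region nucleotides of an intron in the knt kanamycin-resistance gene on pET-22b(+) were all randomised and the library put into E. coli BL21(DE3). Six replicate transformations were grown overnight at 37°C or 30°C on LB agar with or without 25 μg/mL kanamycin, together with 100 μg/mL carbenicillin, 50 μM IPTG and 0.2% rhamnose. Colonies were pooled and amplicon-sequenced on an Illumina HiSeq 2500. Fitness from DiMSum is the error-weighted combination of wild-type-normalised replicate fold changes, kanamycin over none.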

± gives the uncertainty stated by the source.

Regarding GAAGAGCAAUAUUACGUGCG, the “self-splicing fitness (ln)” value runs as follows: (30 °C) -2.87 ± 0.15; (37 °C) -2.03 ± 0.17.
On to CUAAAGCAAUAUUACGAUCU, for which the “self-splicing fitness (ln)” value was -4.75 ± 0.23 (30 °C) and -2.5 ± 0.18 (37 °C).
For AUAGAGCAAUAUUACGCGGG, in that order: -2.17 ± 0.12 and -2.33 ± 0.16.
For AUAGAGCAAUAUUACGUAUU, the “self-splicing fitness (ln)” value reads like this: (30 °C) -2.46 ± 0.16; (37 °C) -1.1 ± 0.17.
CGGCAGCAAUAUUACGUUGC: the “self-splicing fitness (ln)” value is -3.03 ± 0.27 (30 °C) and -2.57 ± 0.33 (37 °C).
For GCGAAGCAAUAUUACGGAGG, in that order: -2.1 ± 0.18 and -0.467 ± 0.12.
In the case of GCAAAGCAAUAUUACGGGCA, the “self-splicing fitness (ln)” value is -1.3 ± 0.085 (30 °C) and -0.907 ± 0.079 (37 °C).
With ACGAAGCAAUAUUACGGGGC, the “self-splicing fitness (ln)” value was -3.36 ± 0.14 (30 °C) and -2.76 ± 0.16 (37 °C).
For AUCCAGCAAUAUUACGGCGA, in that order: -1.02 ± 0.098 and -0.399 ± 0.13.
For AAUUAGCAAUAUUACGGCUA, in that order: -0.905 ± 0.17 and -0.685 ± 0.22.
As for UCAUAGCAAUAUUACGCCGA, the “self-splicing fitness (ln)” value reads like this: (30 °C) -0.67 ± 0.18; (37 °C) 0.277 ± 0.18.
For UAUUAGCAAUAUUACGACUA, in that order: -0.146 ± 0.096 and 0.46 ± 0.11.
For the sequence UAGGAGCAAUAUUACGAUAU, the “self-splicing fitness (ln)” value is -3.96 ± 0.33 (30 °C) and -2.46 ± 0.28 (37 °C).
As for AUGUAGCAAUAUUACGUCAA, the “self-splicing fitness (ln)” value is -2.9 ± 0.3 (30 °C) and -2.98 ± 0.35 (37 °C).
In the case of CCGAAGCAAUAUUACGGCAG, the “self-splicing fitness (ln)” value is, setting by setting: (30 °C) -2.86 ± 0.15; (37 °C) -1.44 ± 0.16.
For AAUAAGCAAUAUUACGCACU, in that order: 0.285 ± 0.075 and -0.118 ± 0.082.
For GUCCAGCAAUAUUACGUCGU, the “self-splicing fitness (ln)” value runs as follows: (30 °C) -0.0754 ± 0.066; (37 °C) -0.486 ± 0.088.
For ACGAAGCAAUAUUACGAGAG, the “self-splicing fitness (ln)” value (30 °C) was -3.39 ± 0.28 and the “self-splicing fitness (ln)” value (37 °C) was -2.53 ± 0.22.
As for ACUAAGCAAUAUUACGCAUG, the “self-splicing fitness (ln)” value was -2.31 ± 0.091 (30 °C) and -0.766 ± 0.091 (37 °C).
With AGCCAGCAAUAUUACGCAGU, the “self-splicing fitness (ln)” value was -4 ± 0.2 (30 °C) and -3.46 ± 0.21 (37 °C).
As to CCCCAGCAAUAUUACGGGGA, the “self-splicing fitness (ln)” value (30 °C) is -3.15 ± 0.14 and the “self-splicing fitness (ln)” value (37 °C) was -3 ± 0.15.
As to ACCAAGCAAUAUUACGACGC, the “self-splicing fitness (ln)” value is -0.493 ± 0.074 (30 °C) and 0.0307 ± 0.098 (37 °C).
With ACCUAGCAAUAUUACGGGCC, the “self-splicing fitness (ln)” value is -2.34 ± 0.18 (30 °C) and -0.63 ± 0.16 (37 °C).
On the same counts, the results for GUUAAGCAAUAUUACGGUUU are -0.85 ± 0.094 and -1.5 ± 0.12.
In the case of AUUCAGCAAUAUUACGACAU, the “self-splicing fitness (ln)” value (30 °C) amounted to 0.206 ± 0.012 and the “self-splicing fitness (ln)” value (37 °C) worked out at 0.365 ± 0.032.
For GUAAAGCAAUAUUACGCCAG, the “self-splicing fitness (ln)” value by setting is: (30 °C) -1.89 ± 0.083; (37 °C) -1.21 ± 0.14.
Turning to AGUGAGCAAUAUUACGCGUC, the “self-splicing fitness (ln)” value runs as follows: (30 °C) -1.51 ± 0.3; (37 °C) -2.62 ± 0.45.
As to UGGAAGCAAUAUUACGUGAG, the “self-splicing fitness (ln)” value by setting is: (30 °C) -0.593 ± 0.066; (37 °C) -0.141 ± 0.098.
For the sequence CGUGAGCAAUAUUACGUUAG, the “self-splicing fitness (ln)” value reads like this: (30 °C) -2.02 ± 0.081; (37 °C) -1 ± 0.094.
As for UGGGAGCAAUAUUACGGAGG, for the setting “30 °C”, the “self-splicing fitness (ln)” value was -3.43 ± 0.36.
AAAUAGCAAUAUUACGUGGA: the “self-splicing fitness (ln)” value runs as follows: (30 °C) -3.16 ± 0.13; (37 °C) -2.11 ± 0.099.
As for CAAGAGCAAUAUUACGAACU, the “self-splicing fitness (ln)” value reads like this: (30 °C) -3.41 ± 0.27; (37 °C) -2.11 ± 0.26.
As for GAUUAGCAAUAUUACGAAUC, the “self-splicing fitness (ln)” value reads like this: (30 °C) -4.13 ± 0.37; (37 °C) -1.82 ± 0.31.
On the same counts, the results for UAAAAGCAAUAUUACGAAUU are -3.12 ± 0.15 and -1.95 ± 0.18.
On the same counts, the results for GAAAAGCAAUAUUACGGGUG are -2.23 ± 0.079 and -1.18 ± 0.1.
Regarding CAGAAGCAAUAUUACGGCGG, the “self-splicing fitness (ln)” value was -0.0667 ± 0.084 (30 °C) and -0.292 ± 0.12 (37 °C).
For CGUCAGCAAUAUUACGGCGU, in that order: -4.74 ± 0.34 and -0.685 ± 0.19.
